Laboratory results reported in patent publication US20240352105A1, “COMPOSITIONS AND METHODS FOR NEUTRALIZING ANTIGENS” (PACAGEN, INC, priority 2023, published 2024).
Values joined by “and” are separate entries in the source; they are usually repeats but may differ in a detail not shown here. Equal values may be shown once. No end group written: not given here.

What was measured:
[1] = system: known Der p1 antibody (clone 10B9); experiment: Recombinant Der p1-His ELISA binding assay
Description: In order to obtain single variable domain on heavy chain, i.e., VHH, specific for dust mite allergen Der p1, a recombinant His-tagged Der p1 was prepared, which reached high purity, as shown via SDS-Page Western blotting in FIG. 8. To confirm this, an ELISA was performed measuring optical density when the recombinant Der p1-His is incubated with a known Der p1 antibody (clone 10B9). As summarized in Table 11, the recombinant Der p1-His was effectively bound by the antibody.

[2] = target: T1, recombinant His-tagged Der p1 (dust mite, UniProt P08176 99-320, limits assumed); experiment: ELISA, Der p1 on plate, biotinylated peptide at 0.041, duplicate 2
T1 construct: Recombinant His-tagged protein made by the applicant; also called Der p1-His; Der pl; not shown: His tag
T1 sequence (looked up): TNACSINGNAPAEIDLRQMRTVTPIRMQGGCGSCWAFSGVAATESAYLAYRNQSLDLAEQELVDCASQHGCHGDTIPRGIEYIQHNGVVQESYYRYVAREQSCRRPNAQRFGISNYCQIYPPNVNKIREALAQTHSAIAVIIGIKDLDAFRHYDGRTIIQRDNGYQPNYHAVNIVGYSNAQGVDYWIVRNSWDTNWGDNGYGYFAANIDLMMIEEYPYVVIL
Description: (§1) An ELISA was used to validate identified peptides. Der p1 was bound to the bottom of a plate. Different concentrations of the chosen (biotinylated) peptides were added and then washed. Then, HRP-streptavidin (which binds to the biotin) was added and an OD at 450 nm is measured. Duplicate measurements are separated by commas.

[3] = target: T1, recombinant His-tagged Der p1; experiment: ELISA, Der p1 on plate, biotinylated peptide at 10, duplicate 1
Description: as §1

[4] = target: T1, recombinant His-tagged Der p1; experiment: ELISA, Der p1 on plate, biotinylated peptide at 30, duplicate 2
Description: as §1

[5] = target: T1, recombinant His-tagged Der p1; experiment: ELISA, Der p1 on plate, biotinylated peptide at 1.111, duplicate 1
Description: as §1

[6] = target: T1, recombinant His-tagged Der p1; experiment: ELISA, Der p1 on plate, biotinylated peptide at 0.041, duplicate 1
Description: as §1

[7] = target: T1, recombinant His-tagged Der p1; experiment: ELISA, Der p1 on plate, biotinylated peptide at 1.111, duplicate 2
Description: as §1

[8] = target: T1, recombinant His-tagged Der p1; experiment: ELISA, Der p1 on plate, biotinylated peptide at 0.370, duplicate 2
Description: as §1

[9] = target: T1, recombinant His-tagged Der p1; experiment: ELISA, Der p1 on plate, biotinylated peptide at 30, duplicate 1
Description: as §1

[10] = target: T1, recombinant His-tagged Der p1; experiment: ELISA, Der p1 on plate, biotinylated peptide at 3.333, duplicate 2
Description: as §1

[11] = target: T1, recombinant His-tagged Der p1; experiment: ELISA, Der p1 on plate, biotinylated peptide at 3.333, duplicate 1
Description: as §1

[12] = target: T1, recombinant His-tagged Der p1; experiment: ELISA, Der p1 on plate, biotinylated peptide at 0.123, duplicate 1
Description: as §1

[13] = target: T1, recombinant His-tagged Der p1; experiment: ELISA, Der p1 on plate, biotinylated peptide at 0.370, duplicate 1
Description: as §1

[14] = target: T1, recombinant His-tagged Der p1; experiment: ELISA, Der p1 on plate, biotinylated peptide at 10, duplicate 2
Description: as §1

[15] = target: T1, recombinant His-tagged Der p1; experiment: ELISA, Der p1 on plate, biotinylated peptide at 0.123, duplicate 2
Description: as §1

[16] = target: T2, recombinant Fel d1-His (Felis catus, UniProt P30438+P30440); experiment: Recombinant Fel D1 His binding assay with positive control antibodies; design: species or system cat
T2 construct: His; made in house
T2 sequence (P30438 23-92): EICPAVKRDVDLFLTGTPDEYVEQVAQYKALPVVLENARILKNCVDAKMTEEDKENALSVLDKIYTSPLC
T2 sequence (P30440 18-109): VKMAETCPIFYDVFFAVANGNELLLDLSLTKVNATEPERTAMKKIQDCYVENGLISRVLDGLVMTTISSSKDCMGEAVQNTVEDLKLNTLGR
Description: In order to obtain single variable domain on heavy chain, i.e., VHH, specific for cat allergen Fel D1, a recombinant His-tagged Fel D1 was prepared, which reached high purity, as shown via SDS-Page Western blotting in FIG. 14. To confirm this, an ELISA was performed measuring optical density when the recombinant Fel d1-His is incubated with two known Fel D1 antibodies which are summarized in Table 18. As summarized in Table 19, the recombinant Fel d1-His was effectively bound by both antibodies.

[17] = Volume of Fel D1-His 10 μL (concentration ~1 μg/μL)
[18] = Volume of Fel D1-His 50 μL (concentration ~1 μg/μL)
[19] = Volume of Fel D1-His 100 μL (concentration ~1 μg/μL)

B1: Der p1-His: recombinant His-tagged dust mite allergen Der p1 (protein)
chain: T1 sequence (looked up)
modifications: left off: small tags and cut ends
- OD at 450 nm ([1]; Der p1-His Concentration 0.00064 μg/mL): 0.13 and 0.12
- OD at 450 nm ([1]; Der p1-His Concentration 0.016 μg/mL): 0.20 and 0.17
- OD at 450 nm ([1]; Der p1-His Concentration 0.08 μg/mL): 0.58 and 0.49
- OD at 450 nm ([1]; Der p1-His Concentration 0.4 μg/mL): 1.80 and 1.87
- OD at 450 nm ([1]; Der p1-His Concentration 2 μg/mL): 4.03 and 4.31
- OD at 450 nm ([1]; Der p1-His Concentration 10 μg/mL): 4.37 and 4.40

B2: SDAB22110-2-G1 (peptide)
peptide: VVAFGIS
modifications: also: biotinylated, site not given here
notes: 7-amino acid peptide from a phage display library
- OD450 [2]: 0.062 OD450
- OD450 [3]: 0.323 OD450
- OD450 [4]: 0.629 OD450
- OD450 [5]: 0.102 OD450
- OD450 [6]: 0.057 OD450
- OD450 [7]: 0.109 OD450
- OD450 [8]: 0.082 OD450
- OD450 [9]: 0.666 OD450
- OD450 [10]: 0.145 OD450
- OD450 [11]: 0.147 OD450
- OD450 [12]: 0.082 OD450
- OD450 [13]: 0.088 OD450
- OD450 [14]: 0.293 OD450
- OD450 [15]: 0.073 OD450

B3: 370VH + 378VL: known Fel D1 positive control antibody, heavy chain SEQ ID NO: 64, light chain SEQ ID NO: 65 (antibody, V domains shown)
VH: EVQLVESGGGLAQPGGSLRLSCAASGFTFNNYAMTWVRQAPGKGLDWVSAISDSGRSTFSADSVKGRFTISRDNSKNTLYLQMDSLRAEDTALYYCAKHRNWNYPVFDYWGQGTLVTVSS
VL: DIQLTQSPSFLSASVGDRVTITCWASQGISSYLAWYQQKPGKAPKLLIYSASTLQSGVPSRFSGSGSGTEFTLTISSLQPEDFATYYCQQLNSYPFTFGPGTKVDIK
- OD450 Using Positive Control [16, 17]: 4.47 and 4.44
- OD450 Using Positive Control [16, 18]: 4.55 and 4.53
- OD450 Using Positive Control [16, 19]: 4.60

B4: 18VH + 378VL: known Fel D1 positive control antibody, heavy chain SEQ ID NO: 66, light chain SEQ ID NO: 65 (antibody, V domains shown)
VH: EVQLVESGGGLVKPGGSLRLSCAASGFTFRNYNINWVRQAPGKGLEWVSLISGSSSYIYYADSVKGRFTVSRDNAKNSLYLQMNSLRAEDTAVYYCARRTLSYYVMDVWGQGTTVTVSS
VL: B3 VL
- OD450 Using Positive Control [16, 17]: 4.47 and 4.44
- OD450 Using Positive Control [16, 18]: 4.55 and 4.53
- OD450 Using Positive Control [16, 19]: 4.60
